The source of these data is patent US20210214461A1.

For experiment [1], the target named is pre-existing anti-scFv903 antibodies in human serum H56 (human). Briefly: competition ADA bridging ELISA, 100 mcg/ml competitor. (In general: In an ELISA, binding on a coated surface is turned into a signal by an enzyme label.)
The target of experiment [2] is pre-existing anti-scFv903 antibodies in human serum H29 (human). Described as above.
In experiment [3] the target is pre-existing anti-scFv903 antibodies in human serum H96 (human). The experiment is described as above.
The target in experiment [4] is pre-existing anti-scFv903 antibodies in human serum H14 (human). Described as above.
Experiment [5] deals with pre-existing anti-scFv903 antibodies in human serum H54 (human). The experiment is described as above.
Experiment [6] deals with pre-existing anti-scFv903 antibodies in human serum H40 (human). Described as above.
In experiment [7] the target is pre-existing anti-scFv903 antibodies in human serum H76 (human). The description is as above.
The target of experiment [8] is pre-existing anti-scFv903 antibodies in human serum H66 (human). The description is as above.
Experiment [9] concerns the target pre-existing anti-scFv903 antibodies in human serum H60 (human). The description is as above.
The target in experiment [10] is pre-existing anti-scFv903 antibodies in human serum H105 (human). The description is as above.
In experiment [11] the target is pre-existing anti-scFv903 antibodies in human serum H125 (human). The description is as above.
For experiment [12], the target named is pre-existing anti-scFv903 antibodies in human serum H49 (human). The description is as above.
The target of experiment [13] is pre-existing anti-scFv903 antibodies in human serum H26 (human). Described as above.
In experiment [14] the target is pre-existing anti-scFv903 antibodies in human serum H20 (human). The experiment is described as above.
Experiment [15] addresses pre-existing anti-scFv903 antibodies in human serum H64 (human). The experiment is described as above.
For experiment [16], the target named is pre-existing anti-scFv903 antibodies in human serum H79 (human). Described as above.
The target in experiment [17] is pre-existing anti-scFv903 antibodies in human serum H63 (human). The description is as above.
Experiment [18] has as its target pre-existing anti-scFv903 antibodies in human serum H69 (human). Described as above.
Experiment [19] concerns the target pre-existing anti-scFv903 antibodies in human serum H115 (human). The experiment is described as above.
For experiment [20], the target named is pre-existing anti-scFv903 antibodies in human serum H21 (human). Described as above.
The target of experiment [21] is pre-existing anti-scFv903 antibodies in human serum H50 (human). Described as above.
For experiment [22], the target named is pre-existing anti-scFv903 antibodies in human serum H86 (human). The description is as above.
Experiment [23] concerns the target rabbit polyclonal Anti-scFv 903 IgG termed AB903-3 (rabbit). Description: confirmatory ADA bridging ELISA, pre-incubation with 10, 100 or 1 mcg/ml scFv 903.

B1: scFv105 (scFv)
scFv: DIVMTQSPSSLSASVGDRVTLTCTASQSVSNDVVWYQQRPGKAPKLLIYSAFNRYTGVPSRFSGRGYGTDFTLTISSLQPEDVAVYYCQQDYNSPRTFGQGTKLEVKRGGGGSGGGGSGGGGSSGGGSQVQLVQSGAEVKKPGASVKVSCTASGYTFTHYGMNWVRQAPGKGLEWMGWINTYTGEPTYADKFKDRFTFSLETSASTVYMELTSLTSDDTAVYYCARERGDAMDYWGQGTLVTVSS
Turning to B1, the % reduction in OD in experiment [1] was -4.8%; in experiment [2], -51.4%; in experiment [3], -29%; in experiment [4], -3.6%; in [5], -61.3%; in experiment [6], 3.5%. The % reduction in OD in experiment [7] was -65.7%; in experiment [8], -2.6%; in experiment [9], -10.8%; in experiment [10], 2.4%; in experiment [11], -55.5%; in experiment [12] it was -26.1%. Moreover, the % reduction in OD was -79.9% in experiment [13]; -18.8% in experiment [14]; -55.5% in [15]; -40.5% in experiment [16]; -80.5% in experiment [17]; -87.6% in experiment [18]. In addition, the % reduction in OD is -60.4% in experiment [19], -3.4% in experiment [20] and -31.1% in [21].

B2: scFv 791 (scFv)
scFv: MEIVMTQSPSTLSASLGDRVIITCQSSQSVYGNIWMAWYQQKSGKAPKLLIYQASKLASGVPSRFSGSGSGAEFSLTISSLQPDDFATYYCQGNFNTGDRYAFGQGTKLTVLGGGGGSGGGGSGGGGSGGGGSEVQLVESGGGLVQPGGSLRLSCTASGFTISRSYWICWVRQAPGKGLEWVACIYGDNDITPLYANWAKGRFPVSTDTSKNTVYLQMNSLRAEDTAVYYCARLGYADYAYDLWGQGTLVTVSS
For B2, the % reduction in OD in [1] was -15.1%; in experiment [2], -78.7%; in experiment [3], -78.5%; in experiment [4], -96.5%; in [5], -91.7%; in experiment [6], -94.6%. Further, the % reduction in OD in experiment [7] was -48.6%; in experiment [8], -96.4%; in experiment [9], -94.8%; in [10] it was -96.9%; in experiment [11], -97.4%; in experiment [12] it was -81.2%. Moreover, the % reduction in OD in experiment [13] is -96.8%; in [22], -86.7%; in experiment [14], -96.1%; in [15], -95.5%; in [16], -96.8%; in [17], -19.7%. In addition, the % reduction in OD in experiment [18] was -74.7%; in experiment [19] it was -94.8%; in experiment [20], -85.3%; in experiment [21], -88.5%.

B3: scFv 903 (scFv)
scFv: EIVMTQSPSTLSASVGDRVIITCQASEIIHSWLAWYQQKPGKAPKLLIYLASTLASGVPSRFSGSGSGAEFTLTISSLQPDDFATYYCQNVYLASTNGANFGQGTKLTVLGGGGGSGGGGSGGGGSGGGGSEVQLVESGGGLVQPGGSLRLSCTASGFSLTDYYYMTWVRQAPGKGLEWVGFIDPDDDPYYATWAKGRFTISRDTSKNTVYLQMNSLRAEDTAVYYCAGGDHNSGWGLDIWGQGTLVTVSS
Regarding B3, the % change in OD in [1] was -24.4%; in experiment [8], -97.2%. Also, the % change in OD signal was -79.4% in [2] and -96.6% in experiment [4]. In addition, the % reduction in OD in experiment [3] is -80.3%; in [7], -97%; in [10] it was -97.2%; in experiment [11], -97.9%; in [22] it was -86.2%; in experiment [16] it was -97.1%. Moreover, in experiment [19], the % reduction in OD is -94.7%. In addition, the signal change in OD (%) in experiment [5] is -93.1%. In addition, in experiment [6], the % signal change in OD (negative = reduction) was -95.4%. Also, the signal change in competition ELISA was -95.6% in experiment [9] and -91.9% in experiment [14]. For the same molecule, the % change in OD in competition ELISA in experiment [12] was -82.7%. Moreover, the % change in OD (signal change) in [13] was -92%. In [17], the % change in OD (signal change in competition ELISA) was -96.8%. In addition, the results for the signal change in competition ELISA (% change in OD) in [18] and in [21] were -92.2% and -88.7%, respectively. For the same molecule, the % signal change in competition ELISA in experiment [20] was -85.4%. For the same molecule, the OD change upon pre-incubation in experiment [23] was in the range of 60 to 95%.

B4: scFv 961 (scFv)
scFv: EIVMTQSPSTLSASVGDRVIITCQASEIIHSWLAWYQQKPGKAPKLLIYLASTLASGVPSRFSGSGSGAEFTLTISSLQPDDFATYYCQNVYLASTNGANFGQGTKLTVLGGGGGSGGGGSGGGGSGGGGSEVQLVESGGGSVQPGGSLRLSCTASGFSLTDYYYMTWVRQAPGKGLEWVGFIDPDDDPYYATWAKGRFTISRDTSKNTVYLQMNSLRAEDTATYYCAGGDHNSGWGLDIWGQGTTVTVSS
For B4, the % reduction in OD in experiment [1] is -23.8%; in [2] it was -21.9%; in experiment [3] it was -78%; in experiment [5], -69.4%; in experiment [6], -1.7%; in experiment [7] it was -36.4%. The % reduction in OD in [9] was -1.2%; in experiment [10] it was 7.4%; in experiment [11], 2.7%; in experiment [12], -8.8%; in experiment [13], 0.1%; in experiment [22], -67.9%. For the same molecule, the % reduction in OD in [14] is -23.5%; in experiment [15], -13.7%; in experiment [16] it was -74.1%; in experiment [17], -35.9%; in [18] it was -6.2%; in experiment [19] it was -31.4%. Moreover, the % reduction in OD was -80.5% in experiment [20] and -72.8% in [21].
